Experimental data reported in the supplement of paper PMC12042874.
± gives the uncertainty stated by the source.

Assay: amyloid nucleation score (Sup35N fusion, yeast selection) (log enrichment); library NNK2; higher = more nucleation; inactive = no reads after selection
How it was run: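 The nucleation score, computed with DiMSum, is the log enrichment of output over input reads, centred on the mode score of non-aggregating sequences. Sequences with under 100 input reads were dropped. Reads were generated by Illumina sequencing of plasmid inserts from psi-negative yeast with Sup35N fused to peptides of 20 random codons, induced with 100 μM copper sulfate for 24 hours and grown 7 days at 30°C on medium lacking adenine and uracil.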

Substance	amyloid nucleation score
VSIRDVVGQYSINRVICRSY	-0.774 ± 0.54
VSITISTTCSNKGS	1.29 ± 0.22
VSLLCIFVAYGNWVMNGDDP	-0.136 ± 0.62
VSLMFSGVIWAIWLMLFGVG	1.13 ± 0.61
VSLWLYISMQCTRLSRRDQG	0.22 ± 0.65
VSMSRGL	inactive
VSPLALDQVTVSMVAMGIEG	0.999 ± 0.29
VSRSSKMMFFVDHLRYC	1.55 ± 0.58
VSSVRCNRVAYNPASGRGRR	-0.124 ± 0.55
VSSWGMYYWFS	0.06 ± 0.44
VSVLI	0.45 ± 0.44
VSYFPYRDVLGTINNV	0.729 ± 0.54
VTDWACGMILIYVLRKILVM	0.461 ± 0.47
VTGNKEVMKIRCWVAHEESY	0.436 ± 0.49
VTGYGSLYYGVKTRG	-0.295 ± 0.55
VTIEFATHLWGVMY	4.78 ± 0.072
VTTSTLMYWRGRTGALLAPS	1.84 ± 0.22
VVCLPVISLCWIFLHIIF	inactive
VVDCMCSGLHWVQVGILSQP	1.19 ± 0.39
VVEICFYW	6.258 ± 0.034
VVFFNGACALATLAAVSLGP	6 ± 0.062
VVGPFHFIVMMKVSKVRVKL	6.212 ± 0.039
VVIFCVVFWV	0.129 ± 0.76
VVLTHY	0.386 ± 0.34

Substance	amyloid nucleation score
VVMLVRT	3.87 ± 0.064
VVNLIVKDDPWEGWLKSLVW	2.46 ± 0.18
VVRLSSYNASTPLSVSFRRG	-0.171 ± 0.74
VVRVCRQGCLSNLSWCGWGE	-0.1 ± 1
VVSKDDRDGNV	3.14 ± 0.044
VVSYFCCLDCSLNAYS	9.384 ± 0.043
VVTNCAALVNWRFFYLCNSY	3.93 ± 0.054
VVVSVCSPLK	0.258 ± 0.46
VVYFFFCLDMVMTGF	4.65 ± 0.087
VWIGAAGGDFDSCRG	1.29 ± 0.43
VWQVGQQRY	0.899 ± 0.17
VWSNLSVRLRHI	-0.196 ± 1
VWSSMSFTSLFVIISLSNYS	2.88 ± 0.13
VWTCIVFSR	6.22 ± 0.074
VWTIPRS	0.012 ± 0.5
VWVVCEFLAVVPKTKIFRTD	0.721 ± 0.66
VWWGSMHAVC	0.652 ± 0.31
VYAFLYFWGFRHGVVYV	-0.099 ± 0.44
VYCHRLNIILIGRVFCSEDI	0.062 ± 0.55
VYCLSVMSARSQFCVWGWML	0.165 ± 1
VYENKIA	0.313 ± 0.47
VYIFQGMR	-0.302 ± 0.46
VYIWSCCVKSFESSTFDDDN	7.972 ± 0.074
VYLKIAGTVIDRFTAHVLLM	-1.43 ± 0.75

Substance	amyloid nucleation score
VYLVKAGLYSRMNQLLPLCS	0.607 ± 0.34
VYMKFMGMMQHFIKLKSRDL	inactive
VYRFSAAARLDWIDRVNLCN	0.868 ± 0.58
VYRLTRVISEWRSILVLVWT	0.328 ± 0.42
VYSLFSYLRDTLVV	-0.534 ± 0.74
VYTHSGIVY	-0.82 ± 0.62
VYTSYGSRSFTFNRFNAWTD	-0.97 ± 0.78
VYWWVANV	1.99 ± 0.26
VYYWHEYFIDWY	-1.27 ± 1.1
WAATITDRYRCL	0.35 ± 0.35
WAEPYFRCDGSSRIFSQGNA	inactive
WALLGFLDYKLFLTAEVFSA	-0.498 ± 1.1
WAQSNISETSYHVGSLLSVA	0.016 ± 0.32
WAWIHSADLNYNCVMRGCLP	2.16 ± 0.14
WCGLISASYTLIHSNRFMKL	-1.04 ± 1.1
WCVMLGLGSQGSRILRVLRM	0.29 ± 0.29
WDIRVVVSVRCNMQVYLFVC	0.581 ± 0.51
WDSFLRLDFSMLSVLRREPR	2.98 ± 0.18
WDSSPGISVVSIRLEQ	5.431 ± 0.036
WDSVRSWKPFPHTSNKWFIL	-0.679 ± 0.48
WDVKRIRKVSFDFVSRGWKG	-0.293 ± 0.32
WEDGTFEV	-0.219 ± 0.61
WEGLSGTSLVLSQCFAPFSS	2.17 ± 0.12
